Laboratory results reported in patent US20070105796.

B1: N-terminal HA-tagged inactive MAPKAPK3 (T201A/T313A) (protein)
chain: MDGETAEEQGGPVPPPVAPGGPGLGGAPGGRREPKKYAVTDDYQLSKQVLGLGVNGKVLECFHRRTGQKCALKLLYDSPKARQEVDHHWQASGGPHIVCILDVYENMHHGKRCLLIIMECMEGGELFSRIQERGDQAFTEREAAEIMRDIGTAIQFLHSHNIAHRDVKPENLLYTSKEKDAVLKLTDFGFAKETTQNALQAPCYTPYYVAPEVLGPEKYDKSCDMWSLGVIMYILLCGFPPFYSNTGQAISPGMKRRIRLGQYGFPNPEWSEVSEDAKQLIRLLLKTDPTERLTITQFMNHPWINQSMVVPQAPLHTARVLQEDKDHWDEVKEEMTSALATMRVDYDQVKIKDLKTSNNRLLNKRRKKQAGSSSASQGCNNQ
B2: N-terminal HA-tagged MAPKAPK3 (protein)
chain: MDGETAEEQGGPVPPPVAPGGPGLGGAPGGRREPKKYAVTDDYQLSKQVLGLGVNGKVLECFHRRTGQKCALKLLYDSPKARQEVDHHWQASGGPHIVCILDVYENMHHGKRCLLIIMECMEGGELFSRIQERGDQAFTEREAAEIMRDIGTAIQFLHSHNIAHRDVKPENLLYTSKEKDAVLKLTDFGFAKETTQNALQTPCYTPYYVAPEVLGPEKYDKSCDMWSLGVIMYILLCGFPPFYSNTGQAISPGMKRRIRLGQYGFPNPEWSEVSEDAKQLIRLLLKTDPTERLTITQFMNHPWINQSMVVPQTPLHTARVLQEDKDHWDEVKEEMTSALATMRVDYDQVKIKDLKTSNNRLLNKRRKKQAGSSSASQGCNNQ
B3: GST fusion inactive MAPKAPK3 (T201A/T313A) (protein)
chain: MDGETAEEQGGPVPPPVAPGGPGLGGAPGGRREPKKYAVTDDYQLSKQVLGLGVNGKVLECFHRRTGQKCALKLLYDSPKARQEVDHHWQASGGPHIVCILDVYENMHHGKRCLLIIMECMEGGELFSRIQERGDQAFTEREAAEIMRDIGTAIQFLHSHNIAHRDVKPENLLYTSKEKDAVLKLTDFGFAKETTQNALQAPCYTPYYVAPEVLGPEKYDKSCDMWSLGVIMYILLCGFPPFYSNTGQAISPGMKRRIRLGQYGFPNPEWSEVSEDAKQLIRLLLKTDPTERLTITQFMNHPWINQSMVVPQAPLHTARVLQEDKDHWDEVKEEMTSALATMRVDYDQVKIKDLKTSNNRLLNKRRKKQAGSSSASQGCNNQ
B4: GST fusion MAPKAPK3 (N-terminal GST fusion human MAPKAPK3) (protein)
chain: MDGETAEEQGGPVPPPVAPGGPGLGGAPGGRREPKKYAVTDDYQLSKQVLGLGVNGKVLECFHRRTGQKCALKLLYDSPKARQEVDHHWQASGGPHIVCILDVYENMHHGKRCLLIIMECMEGGELFSRIQERGDQAFTEREAAEIMRDIGTAIQFLHSHNIAHRDVKPENLLYTSKEKDAVLKLTDFGFAKETTQNALQTPCYTPYYVAPEVLGPEKYDKSCDMWSLGVIMYILLCGFPPFYSNTGQAISPGMKRRIRLGQYGFPNPEWSEVSEDAKQLIRLLLKTDPTERLTITQFMNHPWINQSMVVPQTPLHTARVLQEDKDHWDEVKEEMTSALATMRVDYDQVKIKDLKTSNNRLLNKRRKKQAGSSSASQGCNNQ
B5: GST fusion active MAPKAPK3 (T201E/T313E) (protein)
chain: MDGETAEEQGGPVPPPVAPGGPGLGGAPGGRREPKKYAVTDDYQLSKQVLGLGVNGKVLECFHRRTGQKCALKLLYDSPKARQEVDHHWQASGGPHIVCILDVYENMHHGKRCLLIIMECMEGGELFSRIQERGDQAFTEREAAEIMRDIGTAIQFLHSHNIAHRDVKPENLLYTSKEKDAVLKLTDFGFAKETTQNALQEPCYTPYYVAPEVLGPEKYDKSCDMWSLGVIMYILLCGFPPFYSNTGQAISPGMKRRIRLGQYGFPNPEWSEVSEDAKQLIRLLLKTDPTERLTITQFMNHPWINQSMVVPQEPLHTARVLQEDKDHWDEVKEEMTSALATMRVDYDQVKIKDLKTSNNRLLNKRRKKQAGSSSASQGCNNQ
B6: N-terminal HA-tagged active MAPKAPK3 (T201E/T313E) (protein)
chain: MDGETAEEQGGPVPPPVAPGGPGLGGAPGGRREPKKYAVTDDYQLSKQVLGLGVNGKVLECFHRRTGQKCALKLLYDSPKARQEVDHHWQASGGPHIVCILDVYENMHHGKRCLLIIMECMEGGELFSRIQERGDQAFTEREAAEIMRDIGTAIQFLHSHNIAHRDVKPENLLYTSKEKDAVLKLTDFGFAKETTQNALQEPCYTPYYVAPEVLGPEKYDKSCDMWSLGVIMYILLCGFPPFYSNTGQAISPGMKRRIRLGQYGFPNPEWSEVSEDAKQLIRLLLKTDPTERLTITQFMNHPWINQSMVVPQEPLHTARVLQEDKDHWDEVKEEMTSALATMRVDYDQVKIKDLKTSNNRLLNKRRKKQAGSSSASQGCNNQ

Target: HSP27 (small heat shock protein 27), P04792
Sequence (P04792 whole entry): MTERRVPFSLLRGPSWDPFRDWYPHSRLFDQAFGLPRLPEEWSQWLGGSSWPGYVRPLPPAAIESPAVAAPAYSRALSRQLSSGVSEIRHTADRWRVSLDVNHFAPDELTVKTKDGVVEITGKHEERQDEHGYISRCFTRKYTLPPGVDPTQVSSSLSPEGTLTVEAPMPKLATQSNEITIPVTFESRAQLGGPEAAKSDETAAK

Protein	kinase activity (immune-complex kinase assay, phosphorylation of HSP27)	kinase activity (phosphorylation of HSP27 with [gamma-32P]ATP, autoradiography)
B1	the kinase activity was observed only in an active MAPKAPK3	–
B2	the kinase activity was observed only in an active MAPKAPK3	–
B3	–	the kinase activity was observed only in an active MAPKAPK3
B4	–	the kinase activity was observed only in an active MAPKAPK3
B5	–	the kinase activity was observed only in an active MAPKAPK3
B6	the kinase activity was observed only in an active MAPKAPK3	–
